These results are taken from paper PMC6469964.

Where two headings read alike, the source gives them in different places.

Series [1] deals with T1, 6xHis-HNRNPK (mouse, UniProt P61979 1-463). Description: EMSA.
The target of series [2] is T1, 6xHis-HNRNPK. Description: EMSA. The source holds these as a separate data set. (In general: A gel shift assay detects complexes by their altered migration in electrophoresis.)

B1: WT Repeat B RNA (ssRNA)
RNA: GCCCCAGCCCCUGCCCCAGCCCCAGCCCCUGCCCCUGCCCCAGCCCCUGCCCCA
Turning to B1, the binding result with 6xHis-HNRNPK [1] was “binds”.

B2: mutant Repeat B RNA (ssRNA)
RNA: GCAACAGCAACUGCAACAGCAACAGCAACUGCAACUGCAACAGCAACUGCAACA
Regarding B2, the binding result in the series with 6xHis-HNRNPK [2] is “no binding”.
